“Also recorded” adds a separate entry of the source. Values belong to the molecule of their own block, whether it stands above or below them.
Legend:
Experiment in all cases: Pull-down of FGF23 with Fc-FGFR on protein A/G beads with sKL, heparin or PBS
Settings in all cases: with heparin, or alone
[1] = molecular target: T1, FGF23 binding to FGFR4 (Homo sapiens, UniProt P22455+Q9GZV9)
T1 construct: Fc-coupled FGFR ectodomains were immobilized on protein A/G beads; purchased R&D Systems 2604FG025/CF or 2629FG025/CF; 685FR050
T1 sequence (Q9GZV9 25-251): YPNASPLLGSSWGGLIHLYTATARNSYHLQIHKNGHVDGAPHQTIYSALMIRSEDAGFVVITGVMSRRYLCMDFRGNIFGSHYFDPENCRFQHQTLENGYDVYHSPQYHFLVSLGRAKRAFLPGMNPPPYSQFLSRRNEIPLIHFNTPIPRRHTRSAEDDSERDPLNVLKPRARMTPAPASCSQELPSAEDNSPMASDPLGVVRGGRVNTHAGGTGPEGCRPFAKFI
T1 sequence (P22455 22-369 limits assumed): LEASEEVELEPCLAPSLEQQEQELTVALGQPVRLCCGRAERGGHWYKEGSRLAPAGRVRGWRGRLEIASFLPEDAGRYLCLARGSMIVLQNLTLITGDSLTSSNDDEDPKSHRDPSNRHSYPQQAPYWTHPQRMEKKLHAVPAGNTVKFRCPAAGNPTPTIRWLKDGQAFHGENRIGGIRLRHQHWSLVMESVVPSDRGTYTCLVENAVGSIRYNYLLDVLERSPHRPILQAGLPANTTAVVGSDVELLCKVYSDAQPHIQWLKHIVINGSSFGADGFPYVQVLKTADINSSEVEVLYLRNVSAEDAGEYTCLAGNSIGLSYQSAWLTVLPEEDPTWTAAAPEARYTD
Protocol: (§1) To study the interaction between Fc-tagged FGFR isoforms (Fc-FGFR), FGF isoforms, and sKL, immunoprecipitation studies were conducted. Protein A beads (6501, BioVision) and protein G beads (6511, BioVision) were used at 25 μl of a 50% stock slurry per sample in a total bead volume of 50 μl. Beads were washed 5× in activity buffer (50 mM Tris [pH 7.4], 200 mM NaCl, 0.01% Tween 20). Bead spin-down assays were all performed for 2 minutes at 5000 g. Beads were resuspended in 1 ml of activity buffer in a 1.5-ml snap cap tube. One microgram of Fc-FGFR1 to 4 was incubated with the beads for 1 hour on a bead rotator. Control samples were incubated with 2 μg of anti-FGF antibody instead of Fc-FGFR. Beads were then pelleted at 5000 g for 2 minutes and washed 5× with activity buffer. Beads were resuspended and incubated with different combinations of 500 ng of FGF, 1 μg of sKL, 1.6 United States Pharmacopeia (USP) units of heparin, or phosphate-buffered saline (PBS). Beads were incubated for 1 hour on a tube rotator, and beads were pelleted and washed as before. One hundred microliters of 1× Laemmli sample buffer (1610737, Bio-Rad) with 1.42 M 2-mercaptoethanol was added, and samples were boiled for 5 minutes. Samples were analyzed using SDS-PAGE and Western blotting.
(§2) The sample (20 μl) was loaded onto Mini-PROTEAN TGX Precast Gel 4-20% for experiments with <9 samples (4568094, Bio-Rad) or Criterion TGX Precast Gel 4-20% (5678094, Bio-Rad) for experiments with >9 samples. Gels were run in 1× Tris/Glycine/SDS buffer (1610732, Bio-Rad) at 150 V and stopped when the sample dye reached the end of the gel. Gels were removed and electrotransferred via a semi-dry cassette (1703940, Bio-Rad) in I× Tris/Glycine buffer (1610734, Bio-Rad) with 20% methanol. Gels were transferred onto polyvinylidene diflouride membranes (IPVH00010, Millipore) at 20 V for 1 hour. Membranes were then blocked in 5% dried milk with 0.5% Tween 20 diluted in Tris-buffered saline (TBST; pH 7.5) for 1 hour and probed with antibodies against specific antigens at 1:1000 in TBST with 5% dried milk. Blots were washed 3× for 5 minutes in TBST and probed with HRP-coupled secondary antibodies against specific species at 1:10,000 in TBST with 5% dried milk. Membranes were imaged on the SRX-101A X-ray film developer (Konica Minolta).

[2] = molecular target: T2, FGF23 binding to FGFR1c (Homo sapiens, UniProt P11362+Q9GZV9)
T2 construct: Fc-coupled FGFR ectodomains were immobilized on protein A/G beads; purchased R&D Systems 2604FG025/CF or 2629FG025/CF; 658FR050
T2 sequence (Q9GZV9 25-251): T1 sequence (Q9GZV9 25-251)
T2 sequence (P11362 22-376 limits assumed): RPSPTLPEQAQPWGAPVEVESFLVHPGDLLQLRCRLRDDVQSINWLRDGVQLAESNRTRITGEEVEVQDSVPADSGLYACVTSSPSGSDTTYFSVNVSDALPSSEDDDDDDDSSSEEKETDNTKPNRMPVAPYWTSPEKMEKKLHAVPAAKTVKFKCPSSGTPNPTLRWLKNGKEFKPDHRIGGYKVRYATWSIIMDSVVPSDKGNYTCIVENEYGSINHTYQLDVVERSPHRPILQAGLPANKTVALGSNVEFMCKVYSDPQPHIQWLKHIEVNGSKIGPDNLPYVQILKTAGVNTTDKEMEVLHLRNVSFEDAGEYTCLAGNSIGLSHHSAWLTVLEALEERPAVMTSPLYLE
Protocol: as §1, §2

[3] = molecular target: T3, FGF23 binding to FGFR3c (Homo sapiens, UniProt P22607+Q9GZV9)
T3 construct: Fc-coupled FGFR ectodomains were immobilized on protein A/G beads; purchased R&D Systems 2604FG025/CF or 2629FG025/CF; 766FR050
T3 sequence (Q9GZV9 25-251): T1 sequence (Q9GZV9 25-251)
T3 sequence (P22607 23-375 limits assumed): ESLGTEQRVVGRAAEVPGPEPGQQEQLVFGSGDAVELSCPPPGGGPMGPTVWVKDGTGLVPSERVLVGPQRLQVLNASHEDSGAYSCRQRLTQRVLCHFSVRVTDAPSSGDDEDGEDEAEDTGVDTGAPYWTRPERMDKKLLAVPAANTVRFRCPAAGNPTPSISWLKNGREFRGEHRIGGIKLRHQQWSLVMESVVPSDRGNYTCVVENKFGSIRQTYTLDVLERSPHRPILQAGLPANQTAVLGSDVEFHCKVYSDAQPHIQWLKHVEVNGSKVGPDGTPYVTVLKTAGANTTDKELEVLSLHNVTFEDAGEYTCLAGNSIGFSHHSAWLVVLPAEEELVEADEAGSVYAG
Protocol: as §1, §2

FGF23 co-precipitation with Fc-FGFR4 [1]: no FGF23 binding was detected
FGF23 co-precipitation with Fc-FGFR1c [2]: no FGF23 binding was detected
FGF23 co-precipitation with Fc-FGFR3c [3]: no FGF23 binding was detected
B1: FGF23: recombinant fibroblast growth factor 23 protein from R&D Systems (protein)
chain: YPDTSPLLGSNWGSLTHLYTATARTSYHLQIHRDGHVDGTPHQTIYSALMITSEDAGSVVITGAMTRRFLCMDLHGNIFGSLHFSPENCKFRQWTLENGYDVYLSQKHHYLVSLGRAKRIFQPGTNPPPFSQFLARRNEVPLLHFYTVRPRRHTRSAEDPPERDPLNVLKPRPRATPVPVSCSRELPSAEEGGPAASDPLGVLRRGRGDARGGAGGADRCRPFPRFV

FGF23 co-precipitation with Fc-FGFR4 [1]: could coprecipitate sKL and FGF23
FGF23 co-precipitation with Fc-FGFR3c [3]: could coprecipitate sKL and FGF23
B2: sKL: recombinant soluble α-klotho ectodomain, mouse aa 35-982 and human aa 34-981, FLAG- or Strep/His-tagged, purified from HEK293 cells (protein)
chain: EPGDGAQTWARFSRPPAPEAAGLFQGTFPDGFLWAVGSAAYQTEGGWQQHGKGASIWDTFTHHPLAPPGDSRNASLPLGAPSPLQPATGDVASDSYNNVFRDTEALRELGVTHYRFSISWARVLPNGSAGVPNREGLRYYRRLLERLRELGVQPVVTLYHWDLPQRLQDAYGGWANRALADHFRDYAELCFRHFGGQVKYWITIDNPYVVAWHGYATGRLAPGIRGSPRLGYLVAHNLLLAHAKVWHLYNTSFRPTQGGQVSIALSSHWINPRRMTDHSIKECQKSLDFVLGWFAKPVFIDGDYPESMKNNLSSILPDFTESEKKFIKGTADFFALCFGPTLSFQLLDPHMKFRQLESPNLRQLLSWIDLEFNHPQIFIVENGWFVSGTTKRDDAKYMYYLKKFIMETLKAIKLDGVDVIGYTAWSLMDGFEWHRGYSIRRGLFYVDFLSQDKMLLPKSSALFYQKLIEKNGFPPLPENQPLEGTFPCDFAWGVVDNYIQVDTTLSQFTDLNVYLWDVHHSKRLIKVDGVVTKKRKSYCVDFAAIQPQIALLQEMHVTHFRFSLDWALILPLGNQSQVNHTILQYYRCMASELVRVNITPVVALWQPMAPNQGLPRLLARQGAWENPYTALAFAEYARLCFQELGHHVKLWITMNEPYTRNMTYSAGHNLLKAHALAWHVYNEKFRHAQNGKISIALQADWIEPACPFSQKDKEVAERVLEFDIGWLAEPIFGSGDYPWVMRDWLNQRNNFLLPYFTEDEKKLIQGTFDFLALSHYTTILVDSEKEDPIKYNDYLEVQEMTDITWLNSPSQVAVVPWGLRKVLNWLKFKYGDLPMYIISNGIDDGLHAEDDQLRVYYMQNYINEALKAHILDGINLCGYFAYSFNDRTAPRFGLYRYAADQFEPKASMKHYRKIIDSNGFPGPETLERFCPEEFTVCTECSFFHTRKS
modifications: left off: small tags and cut ends
notes: recombinant soluble α-klotho ectodomain, mouse aa 35-982 and human aa 34-981, FLAG- or Strep/His-tagged, purified from HEK293 cells
FGF23 co-precipitation with Fc-FGFR1c [2]: could coprecipitate sKL and FGF23; also recorded: complex formation with FGFR1c

From patent publication US20240384250A1, “FIBROBLAST GROWTH FACTOR 23 MODULATING COMPOUNDS” (THE UAB RESEARCH FOUNDATION, priority 2021, published 2024)
